# According to PMC5940772 (Nature Communications, 2018):
# B1: TRIM25-CC (coiled-coil domain of TRIM25, 189-379), tag removed (domain or fragment)
# chain: ASLSQASADLEATLRHKLTVMYSQINGASRALDDVRNRQQDVRMTANRKVEQLQQEYTEMKALLDASETTSTRKIKEEEKRVNSKFDTIYQILLKKKSEIQTLKEEIEQSLTKRDEFEFLEKASKLRGISTKPVYIPEVELNHKLIKGIHQSTIDLKNELKQCIGRLQEPTPSSGDPGEHDPASTHKSTRP
# B2: Human TRIM25 CC-PRYSPRY domain (residues 189-630) (domain or fragment)
# chain: ASLSQASADLEATLRHKLTVMYSQINGASRALDDVRNRQQDVRMTANRKVEQLQQEYTEMKALLDASETTSTRKIKEEEKRVNSKFDTIYQILLKKKSEIQTLKEEIEQSLTKRDEFEFLEKASKLRGISTKPVYIPEVELNHKLIKGIHQSTIDLKNELKQCIGRLQEPTPSSGDPGEHDPASTHKSTRPVKKVSKEEKKSKKPPPVPALPSKLPTFGAPEQLVDLKQAGLEAAAKATSSHPNSTSLKAKVLETFLAKSRPELLEYYIKVILDYNTAHNKVALSECYTVASVAEMPQNYRPHPQRFTYCSQVLGLHCYKKGIHYWEVELQKNNFCGVGICYGSMNRQGPESRLGRNSASWCVEWFNTKISAWHNNVEKTLPSTKATRVGVLLNCDHGFVIFFAVADKVHLMYKFRVDFTEALYPAFWVFSAGATLSICSPK
# notes: also called TRIM25 coiled-coil-PRY-SPRY
# B3: NS1-ED (effector domain of NS1, 79-230) (domain or fragment)
# chain: MTMASVPASRYLTDMTLEEMSRDWSMLIPKQKVAGPLCIRMDQAIMDKNIILKANFSVIFDRLETLILLRAFTEEGAIVGEISPLPSLPGHTAEDVKNAVGVLIGGLEWNDNTVRVSETLQRFAWRSSNENGRPPLTPKQKREMAGTIRSEV
# How the values were obtained:
# crystal structure = target: the molecule itself; test: crystal structure
# SEC + SEC-MALS = target: the molecule itself; test: SEC + SEC-MALS
# [1] = target: His-tagged TRIM25-CC (coiled-coil domain of TRIM25, 189-379) (human, UniProt Q14258 189-379); test: BLI; […] (~12 ug/ml); […]; 25 °C; 50 mM HEPES pH 7.5, 150 mM NaCl, 1 mM DTT, 0.005% Tween-20; […]; settings: both partners purified
binder,measurement,setting,value
B1,binding result,crystal structure,binds
B2,stoichiometry N,SEC + SEC-MALS,2
B3,Kd,[1],16.1 µM
